Laboratory results published in patent US20060188440A1 (FOX CHASE CANCER CENTER, published 2006).
Values belong to the binder of their own block, whether it stands above or below them.

How the values were obtained:
[1] = target: T1, MISIIR-Fc ECD fusion protein (human, UniProt Q16671 18-149); assay: SPR (BIAcore 1000), MISIIR-Fc ECD on CM5 chip (600 RU), serially diluted scFv
T1 construct: extracellular domain; Two orientations were made (ECD 5' or 3' of Fc); The secretion signal from the vector is not part of the secreted protein; also called MISIIR-Fc fusion protein; MISIIR ECD; not shown: tobacco etch virus cleavage site between MISIIR and Fc; human IgG1 Fc domain; C-terminal c-myc tag and 6xHis tag from the pSecTag2/Hygro vector
Description: (§1) Surface plasmon resonance (SPR) technology was used to determine the binding of the anti-MISIIR molecules to MISIIR ECD. The SPR response reflects a change in the mass concentration as molecules bind or dissociate from an antigen immobilized on a sensor chip. These studies were performed on a BIAcore 1000 instrument. The MISIIR-Fc ECD fusion protein target antigen was coated on a CM5 chip at a concentration of 5,000 resonance units (RU). The anti-MISIIR antibody molecules were then flowed over the chip and the difference in the response units (RU) between the start point and the end was determined. A negative control protein (Fc) was coated on a chip at 4,800 RU and was used to rule out binding to the Fc portion of the MISIIR-Fc fusion protein. The association and dissociation rates, and the affinity of each molecule for MISIIR ECD were determined by passing serially diluted samples over an MISIIR-Fc ECD coated chip with a lower concentration of target antigen (600 RU) as per the BIAcore manufacturer's instructions. The evaluation of the data was done using BIAEvaluation 3.0 software.

[2] = target: T1, MISIIR-Fc ECD fusion protein; assay: assay not named in the sentence (ELISA / SPR of Example 1)
[3] = target: T1, MISIIR-Fc ECD fusion protein; assay: SPR (BIAcore 1000), chip coated with MISIIR (MISIIR-Fc ECD fusion protein), scFv-Fc flowed over; analyte concentration not given; time unit not given
Description: as §1

[4] = target: T2, MISIIR expressed on IGROV-1 cells (UniProt Q16671 18-573, limits assumed); assay: flow cytometry (FACS) on IGROV-1 cells, detection with fluorescein-conjugated goat anti-human IgG; concentration not given
T2 construct: whole, on cells; also called MIS type II receptor
T2 sequence (looked up): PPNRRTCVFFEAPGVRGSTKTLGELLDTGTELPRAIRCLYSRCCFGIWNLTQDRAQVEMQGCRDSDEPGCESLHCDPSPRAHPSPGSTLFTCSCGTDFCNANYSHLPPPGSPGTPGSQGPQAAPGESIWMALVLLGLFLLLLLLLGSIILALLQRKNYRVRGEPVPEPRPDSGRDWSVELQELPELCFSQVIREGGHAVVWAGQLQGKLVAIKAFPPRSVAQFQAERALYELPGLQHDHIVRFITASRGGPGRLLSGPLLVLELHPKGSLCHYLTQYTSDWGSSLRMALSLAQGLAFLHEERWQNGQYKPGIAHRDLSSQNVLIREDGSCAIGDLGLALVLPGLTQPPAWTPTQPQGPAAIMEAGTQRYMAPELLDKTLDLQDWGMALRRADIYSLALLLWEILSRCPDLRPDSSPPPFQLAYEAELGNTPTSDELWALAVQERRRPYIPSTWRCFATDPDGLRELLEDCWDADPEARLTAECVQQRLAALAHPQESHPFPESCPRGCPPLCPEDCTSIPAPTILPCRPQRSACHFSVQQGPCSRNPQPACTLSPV
Description: The binding of the antibodies was also tested in a standard fluorescence-activated cell sorter (FACS) assay.

B1: anti-MISIIR scFv of clone #7 (scFv)
scFv: MAQVQLVQSGTEVKRPGASVKISCRATGYTFSDYGISWMRQAPGQGLEWMGWISAYNGNTNYAQKLQGRVTMTTDTSTSTAYMELRSLRYDDTAVYYCARDGRRGSGIYWGVYYYNGMDVWGQGTTVTVSSGGGGSGGGGSGGGGSQPVLTQPPSASGTPGQRVTISCSGSRSNIGRNTVNWYQQVPGMAPKLLIYSNNQRPSGVPDRFSGSKSGTSASLAISGLQSEDEADYYCAAWDDSLNGVVFGGGTKLTVLGQPKAAP
notes: Expressed from pCYN (pUC119mychis) with myc and His tags
- Kd [1]: 300 nM

B2: anti-MISIIR scFv of clone #17 (scFv)
scFv: MAQVTLKESGPTLVKPTQTLTLTCTFSGFSLTTSGVGVGWIRQAPGKAPEWLALIDWDDDKYYSTSLKTRLTISKDTSKNQVVLTMTNMDPVDTATYYCARDSYYGSGSHFDFWGQGTLVTVSSGGGGSGGGGSGGGGSSYELTQPPSVSVSPGQTATITCSGHDLRNKYAHWYQQKPGQSPVLVVYQDAKRPSGIPERFSGSNSGNTATLTISGTQAMDEADYYCQTWDRSTVVFGGGTKLTVLGQPKAAPSAA
notes: Expressed from pCYN (pUC119mychis) in E. coli and purified by IMAC; It carries C-terminal myc and His tags
- Kd [1]: 90 nM

B3: GY4 scFv antibody molecule (scFv)
scFv: MAQITLKESGPTLVKPTQTLTLTCTVSGFSLSNARMGVSWIRQPPGKALEWLALIYRDNDKRYNPSLKSRLTITKDTSKNQVVLTMSNMDPVDTATYYCAHSLVVPAANPFDYWGQGTLVTVSSSASGAELGGGGSGGGGSGGGGSTSQAVLTQPSSLSASPGASASLTCTLRSGINVGTYRIYWYQQKPGSPPQYLLRYKSDSDKQKGSGVPSRFSGSKDASANAGILLISGLQSEDEADYYCMIWHTSAYVFGTGTKVTVLGSS
- binding result [2]: binds

The remaining lines, values ahead:

- binding result [2]: binds
B4: scFv antibody molecule of clone #29 (scFv)
scFv: MAQVQLVQSGGGLVQPGGSLRLSCAASGFTVSSNYMSWVRQAPGKGLEWVSAISGSGGSTYYADSVKGRFTISRDNSKNTLYLQMNSLRAEDTAVYYCATRPSRGSSGWYGGDYWGQGTLVTVSSGGGGSGGGGSGGGGSSYELTQPPSTSGTPGQRVTISCSGSTSNIATNNVNWYQFLPGTAPKLLMYRNDQRPAGVPDRFSGSKSGTSASLAISGLQPEDEADYYCAAWDDSLGGEVFGTGTKVNVLGQPKAAPSAA

- binding result [2]: binds
B5: M9 scFv antibody molecule (scFv)
scFv: MAQVQLVQSGAEVKKPGASVKVSCKASGYTFTSYDINWVRQATGQGLEWMGWMNPNSGNTGYAQKFQGRVTMTRNTSTNTAYMELTSLTSEDTAVYYCARGSPSPMNVWGQGTTVTVSSGGGGSGGGGSGGGGSQPVLTQPHSVSESPGKTVTISCTRSSGSIANDYVQWFQQRPGSAPTIVIYEDYRRPSGVPDRFSGSIDSSSNSASLTISGLKTEDEADYYCQSYDSSNPYVVFGGGTKLTVLGQPKAAPSAAA

- binding result [3]: binds
- binding result [4]: binds
B6: scFv-Fc of clone #7 (Fc fusion)
scFv: QVQLVQSGTEVKRPGASVKISCRATGYTFSDYGISWMRQAPGQGLEWMGWISAYNGNTNYAQKLQGRVTMTTDTSTSTAYMELRSLRYDDTAVYYCARDGRRGSGIYWGVYYYNGMDVWGQGTTVTVSSGGGGSGGGGSGGGGSQPVLTQPPSASGTPGQRVTISCSGSRSNIGRNTVNWYQQVPGMAPKLLIYSNNQRPSGVPDRFSGSKSGTSASLAISGLQSEDEADYYCAAWDDSLNGVVFGGGTKLTVL
notes: Bivalent fusion secreted from mammalian cells; The F105 VH / pelB leader is not part of the secreted protein; Copies '2' follows from 'bivalent'; also called sFv-IgG fusion protein; not shown: Human IgG1 hinge-CH2-CH3 of the hinge stuffer vector, and the junction to it
